Data taken from patent US20240239894A1 (AstraZeneca / MedImmune, published 2024).
Substitutions are numbered along the chain they refer to.

T1: cynomolgus monkey B7-H4 on cells (cynomolgus monkey, UniProt A0A2K5U6P5 25-282)
T1 sequence: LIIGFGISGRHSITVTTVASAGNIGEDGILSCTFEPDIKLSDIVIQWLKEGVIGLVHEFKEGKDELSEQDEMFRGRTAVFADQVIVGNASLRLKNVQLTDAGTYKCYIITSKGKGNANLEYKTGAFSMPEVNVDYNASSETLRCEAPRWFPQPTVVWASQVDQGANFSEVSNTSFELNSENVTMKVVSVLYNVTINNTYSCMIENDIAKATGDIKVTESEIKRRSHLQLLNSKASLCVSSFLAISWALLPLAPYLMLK

T2: huB7-H2 (human, UniProt O75144 19-258)
T2 construct: Sourced antigen; construct not described; also called Human B7-H2
T2 sequence (looked up): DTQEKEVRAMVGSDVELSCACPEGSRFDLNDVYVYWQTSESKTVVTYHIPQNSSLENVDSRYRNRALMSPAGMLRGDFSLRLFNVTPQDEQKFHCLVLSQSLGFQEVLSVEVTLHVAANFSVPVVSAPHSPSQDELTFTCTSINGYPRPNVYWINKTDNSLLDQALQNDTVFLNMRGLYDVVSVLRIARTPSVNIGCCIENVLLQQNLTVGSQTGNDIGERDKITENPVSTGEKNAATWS

T3: huBTN1A1 (human, UniProt Q13410 27-242, limits assumed)
T3 construct: Sourced antigen; construct not described; also called Human BTN1A1
T3 sequence (looked up): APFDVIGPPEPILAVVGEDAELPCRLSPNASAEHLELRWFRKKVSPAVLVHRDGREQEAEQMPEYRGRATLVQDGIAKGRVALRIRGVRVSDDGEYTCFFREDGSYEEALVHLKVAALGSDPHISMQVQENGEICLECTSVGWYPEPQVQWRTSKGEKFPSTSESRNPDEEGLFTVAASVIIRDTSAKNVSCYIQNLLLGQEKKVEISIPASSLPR

T4: Human B7-H4-Fc (Human B7H4 ECD, Fc_6His) (human)
T4 construct: also called FcHis6 tagged human B7-H4
T4 sequence (Q7Z7D3 whole entry, looked up): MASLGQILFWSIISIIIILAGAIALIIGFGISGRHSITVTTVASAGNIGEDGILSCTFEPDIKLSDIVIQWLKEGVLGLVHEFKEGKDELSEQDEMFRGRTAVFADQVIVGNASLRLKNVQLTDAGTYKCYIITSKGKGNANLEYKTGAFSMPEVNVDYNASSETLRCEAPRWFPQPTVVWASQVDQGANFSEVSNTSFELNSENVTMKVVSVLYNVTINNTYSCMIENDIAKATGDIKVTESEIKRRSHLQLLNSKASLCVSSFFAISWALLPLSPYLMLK

T5: Human B7-H4 ECD-Flag-His10 (monomeric) (human, UniProt Q7Z7D3 25-259)
T5 construct: Minimally biotinylated for KinExA; also called hB7H4-ECD-Flag-His10; B7-H4-FLAG
T5 sequence: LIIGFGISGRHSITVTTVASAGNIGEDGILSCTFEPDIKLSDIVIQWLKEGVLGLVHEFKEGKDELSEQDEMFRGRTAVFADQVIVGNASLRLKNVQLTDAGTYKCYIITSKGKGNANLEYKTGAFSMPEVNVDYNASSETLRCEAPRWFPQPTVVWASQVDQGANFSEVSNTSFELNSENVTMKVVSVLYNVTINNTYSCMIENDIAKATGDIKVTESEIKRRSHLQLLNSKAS

T6: huBTN2A1 (human, UniProt Q7KYR7 29-248, limits assumed)
T6 construct: Sourced antigen; construct not described; also called Human BTN2A1
T6 sequence (looked up): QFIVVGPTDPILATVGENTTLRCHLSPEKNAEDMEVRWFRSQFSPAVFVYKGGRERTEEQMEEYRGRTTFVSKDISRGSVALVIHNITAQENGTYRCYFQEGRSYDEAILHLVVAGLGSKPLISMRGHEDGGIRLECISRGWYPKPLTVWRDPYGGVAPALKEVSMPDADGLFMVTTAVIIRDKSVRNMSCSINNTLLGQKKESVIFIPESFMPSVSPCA

T7: huBTNL3 (human, UniProt Q6UXE8 18-237, limits assumed)
T7 construct: Sourced antigen; construct not described; also called Human BTNL3
T7 sequence (looked up): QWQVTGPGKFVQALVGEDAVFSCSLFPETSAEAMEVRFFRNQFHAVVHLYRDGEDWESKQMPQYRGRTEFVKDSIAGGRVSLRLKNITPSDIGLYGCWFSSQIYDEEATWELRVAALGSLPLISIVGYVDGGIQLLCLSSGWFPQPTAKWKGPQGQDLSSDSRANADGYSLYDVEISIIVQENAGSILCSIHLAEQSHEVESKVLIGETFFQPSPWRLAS

T8: huB7-H3 (human, UniProt Q5ZPR3 29-461, limits assumed)
T8 construct: Sourced antigen; construct not described; also called Human B7-H3
T8 sequence (looked up): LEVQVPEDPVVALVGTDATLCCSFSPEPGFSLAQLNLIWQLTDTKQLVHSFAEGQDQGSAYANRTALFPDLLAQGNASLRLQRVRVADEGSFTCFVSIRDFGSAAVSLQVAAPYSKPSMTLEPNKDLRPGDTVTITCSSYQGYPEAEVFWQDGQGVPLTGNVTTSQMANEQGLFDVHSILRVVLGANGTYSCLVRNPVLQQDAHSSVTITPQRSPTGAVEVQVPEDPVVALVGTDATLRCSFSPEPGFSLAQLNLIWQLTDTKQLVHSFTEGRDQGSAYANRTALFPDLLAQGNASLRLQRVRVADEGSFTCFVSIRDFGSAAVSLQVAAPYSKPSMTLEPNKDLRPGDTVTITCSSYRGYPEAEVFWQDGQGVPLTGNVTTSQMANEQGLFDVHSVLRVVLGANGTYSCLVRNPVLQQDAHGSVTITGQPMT

T9: Murine B7-H4-Fc (Mouse B7H4 ECD, Fc_6His) (mouse, UniProt Q7TSP5 25-257)
T9 construct: extracellular domain; also called mouse B7-H4-Fc; FcHis6 tagged murine B7-H4
T9 sequence (Q7TSP5 whole entry, looked up): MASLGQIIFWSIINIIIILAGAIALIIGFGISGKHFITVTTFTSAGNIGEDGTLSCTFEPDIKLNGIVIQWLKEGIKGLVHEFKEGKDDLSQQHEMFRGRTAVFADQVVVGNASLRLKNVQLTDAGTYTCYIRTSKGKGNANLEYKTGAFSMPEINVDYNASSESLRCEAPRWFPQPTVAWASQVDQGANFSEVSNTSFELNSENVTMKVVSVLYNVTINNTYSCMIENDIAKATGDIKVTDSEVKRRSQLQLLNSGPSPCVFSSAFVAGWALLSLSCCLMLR

T10: huHHLA2 (human, UniProt Q9UM44 23-344)
T10 construct: Sourced antigen; construct not described; also called Human HHLA2
T10 sequence (looked up): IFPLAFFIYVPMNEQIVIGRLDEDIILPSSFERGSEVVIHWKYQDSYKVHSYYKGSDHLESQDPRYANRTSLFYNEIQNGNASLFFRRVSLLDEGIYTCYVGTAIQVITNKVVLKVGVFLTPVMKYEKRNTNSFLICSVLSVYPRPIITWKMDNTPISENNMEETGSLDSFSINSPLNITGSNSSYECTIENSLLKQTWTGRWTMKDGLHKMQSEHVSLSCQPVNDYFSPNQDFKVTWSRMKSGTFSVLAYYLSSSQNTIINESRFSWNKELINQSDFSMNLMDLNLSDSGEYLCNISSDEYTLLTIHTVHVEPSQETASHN

T11: Human B7H4 (ECD) Fc TM 6H (human, UniProt Q7Z7D3)
T11 construct: ECD, native leader
T11 sequence (Q7Z7D3 whole entry, looked up): T4 sequence (Q7Z7D3 whole entry, looked up)

B1: E02-GL-SG3249 (antibody, human IgG1, kappa)
heavy: QVQLQQWGAGLLKPSETLSLACTVYGGSFSGYYWNWIRQPPGKGLEWIGEINHSGSTSYNPSLKSRVTISVDTSKNQFSLKLSSVTAADTAVYYCARVLYNWNVDSWGQGTLVTVSSASTKGPSVFPLAPSSKSTSGGTAALGCLVKDYFPEPVTVSWNSGALTSGVHTFPAVLQSSGLYSLSSVVTVPSSSLGTQTYICNVNHKPSNTKVDKRVEPKSCDKTHTCPPCPAPELLGGPSCVFLFPPKPKDTLMISRTPEVTCVVVDVSHEDPEVKFNWYVDGVEVHNAKTKPREEQYNSTYRVVSVLTVLHQDWLNGKEYKCKVSNKALPAPIEKTISKAKGQPREPQVYTLPPSREEMTKNQVSLTCLVKGFYPSDIAVEWESNGQPENNYKTTPPVLDSDGSFFLYSKLTVDKSRWQQGNVFSCSVMHEALHNHYTQKSLSLSPGK
light: DIQMTQSPSSLSASVGDRVTITCRASQDIRNDVGWYQQKPGKAPKRLIYAASRLQSGVPSRFSGSGSGTEFTLTISSLQPEDFATYYCLQHNSYPRTFGQGTKVEIKRTVAAPSVFIFPPSDEQLKSGTASVVCLLNNFYPREAKVQWKVDNALQSGNSQESVTEQDSKDSTYSLSSTLTLSKADYEKHKVYACEVTHQGLSSPVTKSFNRGEC
modifications: pyrrolobenzodiazepine SG3249 conjugated at the inserted cysteine of the Maia backbone
B2: ZY0EPQ-E02 murine IgG1 (antibody, V domains shown)
VH: QVQLQQWGAGLLKPSETLSLTCAVYGGSFSGYYWNWIRQPPGKGLEWIGEINHSGSTNYNPSLKSRVTILVDTSKNQFSLKLSSVTAADTAVYYCARNLYNWNLDSWGQGTLVTVSS
VL: DIQMTQSPSSLSASVGDRVTITCRASQGIRNDLGWYQQKPGRAPKRLIYVASSLQSGVPSRFSGSGSGTEFTLTISSLQPEDFATYYCLQHNSYPRTFGQGTKVEIK
B3: E02-maia (ZY0EQD_E02, wildtype, Maia format human IgG1) (antibody, V domains shown)
VH: B2 VH with N58S, L70S, N98V, L104V
VL: DIQMTQSPSSLSASVGDRVTITCRASQDIRNDVGWYQQKPGKAPKRLIYAASRLQSGVPSRFSGSGSGTEFTLTISSLQPEDFATYYCLQHNSYPRTFGQGTKVEIKR
notes: built here from VH 33 and the Maia constant region 41
B4: ZY0EQD-E02 murine IgG1 (antibody, V domains shown)
VH: B2 VH with N58S, L70S, N98V, L104V
VL: B2 VL with G28D, L33V, R42K, V50A, S53R

Experiments:
[1] = molecular target: T1, cynomolgus monkey B7-H4 on cells; assay: cell-based or functional assay
huB7-H2 = molecular target: T2, huB7-H2; assay: ELISA, absorbance 450 nm, antigen human B7-H2 (ECD) F10H
huBTN1A1 = molecular target: T3, huBTN1A1; assay: ELISA, absorbance 450 nm, antigen human BTN1A1 GST
[2] = molecular target: T4, Human B7-H4-Fc (Human B7H4 ECD, Fc_6His); assay: ELISA, absorbance 450 nm; x axis of this panel printed as Antibody Conc (µg/ml)
[3] = molecular target: T5, Human B7-H4 ECD-Flag-His10 (monomeric); assay: as above
huBTN2A1 = molecular target: T6, huBTN2A1; assay: ELISA
huBTNL3 = molecular target: T7, huBTNL3; assay: ELISA
huB7-H3 = molecular target: T8, huB7-H3; assay: ELISA, absorbance 450 nm, antigen human B7-H3 (ECD) Fc
[4] = molecular target: T4, Human B7-H4-Fc (Human B7H4 ECD, Fc_6His); assay: HTRF binding, murine IgG1
huB7-H1 = molecular target: T12, huB7-H1 (human, UniProt Q9NZQ7 19-238); assay: ELISA, absorbance 450 nm, antigen human B7-H1(ECD) F10H
T12 construct: Sourced antigen; construct not described; also called Human B7-H1
T12 sequence (Q9NZQ7 19-238 limits assumed): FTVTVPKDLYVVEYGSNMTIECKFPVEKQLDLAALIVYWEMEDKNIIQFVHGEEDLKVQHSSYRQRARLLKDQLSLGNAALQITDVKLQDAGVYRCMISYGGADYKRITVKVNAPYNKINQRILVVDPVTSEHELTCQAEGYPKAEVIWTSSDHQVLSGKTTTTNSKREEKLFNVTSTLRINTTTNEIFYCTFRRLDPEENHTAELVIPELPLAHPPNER

huBTN3A2 = molecular target: T13, huBTN3A2 (human, UniProt P78410 30-248, limits assumed); assay: ELISA, absorbance 450 nm, antigen human BTN3A2 GST
T13 construct: Sourced antigen; construct not described; also called Human BTN3A2
T13 sequence (P78410 30-248 limits assumed): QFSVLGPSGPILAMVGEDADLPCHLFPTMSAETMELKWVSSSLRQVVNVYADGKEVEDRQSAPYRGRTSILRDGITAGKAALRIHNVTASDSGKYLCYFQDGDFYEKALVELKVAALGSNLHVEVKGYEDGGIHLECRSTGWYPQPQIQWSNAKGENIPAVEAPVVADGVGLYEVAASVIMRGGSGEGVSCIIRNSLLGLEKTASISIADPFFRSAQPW

[5] = molecular target: T14, Cyno B7-H4-Fc (Cyno B7H4 ECD, FcTM_6His) (cynomolgus monkey); assay: HTRF binding, murine IgG1
T14 construct: extracellular domain; also called cynomolgus B7-H4-Fc

[6] = molecular target: T9, Murine B7-H4-Fc (Mouse B7H4 ECD, …); assay: HTRF binding, murine IgG1
huHHLA2 = molecular target: T10, huHHLA2; assay: ELISA, absorbance 450 nm, antigen human HHLA2 GST
[7] = molecular target: T11, Human B7H4 (ECD) Fc TM 6H; assay: ELISA, absorbance 450 nm, Human B7H4 (ECD) Fc TM 6H; x axis printed as antigen concentration (nM)
[8] = molecular target: T4, Human B7-H4-Fc (Human B7H4 ECD, Fc_6His); assay: ELISA, absorbance 450 nm; x axis printed as antigen concentration (µg/ml)
[9] = molecular target: T5, Human B7-H4 ECD-Flag-His10 (monomeric); assay: as above

Binder | IC50, cytotoxicity on cynomolgus B7-H4 transfected cells [1] | binding result (huB7-H2) | binding result (huBTN1A1) | EC50 (read off the curve) [2] | EC50 (read off the curve) [3] | binding result (huBTN2A1) | binding result (huBTNL3) | binding result (huB7-H3) | EC50 [4] | Max [4] | binding result (huB7-H1) | binding result (huBTN3A2) | EC50 [5] | Max [5] | EC50 [6] | Max [6] | binding result (huHHLA2) | EC50 (read off the curve) [7] | EC50 (read off the curve) [8] | EC50 (read off the curve) [9]
B1 | 0.000672 µg/mL | – | – | – | – | – | – | – | – | – | – | – | – | – | – | – | – | – | – | –
B2 | – | no binding (tested: 10 µg/ml (antigen)) | no binding (tested: 10 µg/ml (antigen)) | ~0.2 µg/mL | ~0.2 µg/mL | no binding | no binding | no binding | 0.38 nM | 2740 | no binding (tested: 10 µg/ml (antigen)) | no binding (tested: about 10 µg/ml (antigen)) | 0.38 nM | 2240 | 2.03 nM | 790 | no binding (tested: about 10 µg/ml (antigen)) | – | – | –
B3 | – | – | – | – | – | – | – | – | – | – | – | – | – | – | – | – | – | ~10 nM | – | –
B4 | – | no binding (tested: 10 µg/ml (antigen)) | no binding (tested: 10 µg/ml (antigen)) | – | – | no binding | no binding | no binding | 0.22 nM | 3170 | no binding (tested: 10 µg/ml (antigen)) | no binding (tested: about 10 µg/ml (antigen)) | 0.22 nM | 2490 | 3.64 nM | 447 | no binding (tested: about 10 µg/ml (antigen)) | – | ~0.03 µg/mL | ~0.04 µg/mL
